# Results taken from patent publication US20100286027A1, “ANTI-BACTERIAL COMPOSITIONS” (priority 2008, published 2010).
# B1: Nod2: purified recombinant LRR domain of Nod2 expressed in E. coli; human NOD2-LRR is SEQ ID NO: 3; ~30000 da (protein, listed as Homo sapiens)
# chain: PAAPGEAKSVHAMPGFIWLIRSLYEMQEERLARKAARGLNVGHLKLTFCSVGPTECAALAFVLQHLRRPVALQLDYNSVGDIGVEQLLPCLGVCKALYLRDNNISDRGICKLIECALHCEQLQKLALFNNKLTDGCAHSMAKLLACRQNFLALRLGNNYITAAGAQVLAEGLRGNTSLQFLGFWGNRVGDEGAQALAEALGDHQSLRWLSLVGNNIGSVGAQALALMLAKNVMLEELCLEENHLQDEGVCSLAEGLKKNSSLKILKLSNNCITYLGAEALLQALERNDTILEVWLRGNTFSLEEVDKLGCRDTRLLL
# notes: purified recombinant LRR domain of Nod2 expressed in E. coli; ~30000 da
# Assays:
# [1] = system: Propionibacterium acnes NB99001; test: MIC against anaerobic bacteria; format: cell-based
# E. coli = test: Aggregation of E. coli in vitro, light microscopy; set-up: species or system Escherichia coli; settings: 10^6 E. coli in 1 ml PBS, 20 microgram/ml protein, 12 hours
# Description: FIG. 4: Aggregation of E. coli in vitro following incubation with recombinant Nod2 LRR domains. E. coli (10^6) in 1 ml of PBS were incubated with either 20 microgram/ml BSA or purified recombinant Nod2 LRR domains for 12 hours. Aliquots of the cultures were inoculated on a coverslipped slide and analyzed by light microscopy using a 63× objective.
# The Nod2 positive staining of the bacteria in the cytoplasm of cultured cells could either be a direct interaction or result from the colocalization of Nod2 and bacteria in an unidentified vesicular structure. In order to test the hypothesis that the interaction between Nod2 and E. coli was direct, purified recombinant LRR domains from Nod2 were incubated with E. coli (FIG. 4). […] This supports the hypothesis that Nod2 LRR domains can directly interact with E. coli.
# Staphylococcus aureus = test: Competition assay of Nod2 LRR activity against S. aureus; format: cell-based; settings: then live S. aureus
# Description: FIG. 6: Purified Nod2 LRR domains (Nod2: 30 microgram/ml) were preincubated with 200 microgram/ml of the indicated bacterial component prior to addition to Staphylococcus aureus. BSA was added as a protein control. Commercial […] extracts (sPGN: soluble […], iPGN: insoluble proteoglycan), lipoteichoic acid (LTA: crude lipoteichoic acid extract, upLTA: ultrapure lipoteichoic acid extract), or heat-killed S. aureus (HKSA) were used. Control indicates bacterial growth in the presence of BSA only.
# If this interaction was the initiating factor for the Nod2 LRR antimicrobial effects, preincubating the domains with bacterial components containing this motif would be expected to inhibit the antibacterial activity. A competition assay was set up using Nod2 LRR activity against S. aureus. The recombinant LRR domains or BSA (control) were preincubated with various components of the S. aureus membrane prior to addition to live S. aureus and the bacterial viability assessed as in Table 1 above (FIG. 6).
# B. subtilis = test: Bacterial growth inhibition (FIG. 14); format: cell-based, Bacillus subtilis; settings: FIG. 14 Panel A; increasing concentrations, relative to controls (100%)
# Description: Values shown are relative to controls incubated in the absence of LRR domains (100%).
# [2] = system: Klebsiella pneumoniae (700603); test: BacTiter-Glo bacterial ATP content viability assay; settings: gram −, +/− SD, n = 3, >100 = activity detected but <50% inhibition
molecule,measurement,setting,value
B1,minimal inhibitory concentration (MIC),[1],4 microgram/ml
same,aggregation of E. coli,E. coli,aggregated and debris could be observed
same,inhibition of antibacterial effect by preincubation with heat-killed S. aureus,Staphylococcus aureus; Nod2 30 microgram/ml preincubated with 200 microgram/ml HKSA,Only heat-killed S. aureus was capable of inhibiting
same,inhibition of antibacterial effect by preincubation with proteoglycan or lipoteichoic acid,Staphylococcus aureus; Nod2 30 microgram/ml preincubated with 200 microgram/ml bacterial component,"Neither S. aureus proteoglycan containing the MDP motif, nor lipoteichoic acid inhibited"
same,growth of B. Subtilis,B. subtilis,inhibits the growth
same,"antibacterial activity by bacterial ATP content (IC50), [LRR domain]",[2],None detected
